Molecular target: T1, VEGF (UniProt P15692-4 27-191)
T1 construct: Bought reagent; also called vascular endothelial growth factor
Test: BIACORE SPR

T1 sequence (P15692 other isoform, or with tags, fused parts or gaps limits assumed): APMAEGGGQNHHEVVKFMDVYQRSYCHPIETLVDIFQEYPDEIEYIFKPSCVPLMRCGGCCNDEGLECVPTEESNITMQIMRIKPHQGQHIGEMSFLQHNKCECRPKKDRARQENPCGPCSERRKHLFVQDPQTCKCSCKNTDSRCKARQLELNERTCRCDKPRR

B1: DVD512 (bispecific antibody, human IgG1, lambda, L234A L235A)
heavy: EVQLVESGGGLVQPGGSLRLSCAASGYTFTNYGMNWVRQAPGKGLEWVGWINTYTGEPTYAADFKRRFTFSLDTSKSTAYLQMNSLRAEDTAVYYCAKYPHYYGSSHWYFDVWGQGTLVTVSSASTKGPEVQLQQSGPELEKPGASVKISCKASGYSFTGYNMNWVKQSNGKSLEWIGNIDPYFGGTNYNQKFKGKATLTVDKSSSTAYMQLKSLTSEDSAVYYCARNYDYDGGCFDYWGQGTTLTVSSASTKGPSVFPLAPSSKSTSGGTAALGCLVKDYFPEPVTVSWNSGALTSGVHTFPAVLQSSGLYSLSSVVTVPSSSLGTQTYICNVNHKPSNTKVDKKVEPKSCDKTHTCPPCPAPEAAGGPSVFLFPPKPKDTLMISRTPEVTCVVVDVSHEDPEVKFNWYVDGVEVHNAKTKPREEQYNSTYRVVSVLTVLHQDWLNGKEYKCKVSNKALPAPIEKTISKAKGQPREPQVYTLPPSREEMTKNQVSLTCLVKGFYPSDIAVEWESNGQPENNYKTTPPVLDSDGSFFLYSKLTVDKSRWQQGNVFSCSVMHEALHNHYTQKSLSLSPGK
light: DIQMTQSPSSLSASVGDRVTITCSASQDISNYLNWYQQKPGKAPKVLIYFTSSLHSGVPSRFSGSGSGTDFTLTISSLQPEDFATYYCQQYSTVPWTFGQGTKVEIKRTVAAPQAVVTQESALTTSPGETVTLTCRSSTGAVTTSNYANWVQEKPDHLFTGLIGGTNNRAPGVPARFSGSLIGDKAALTITGAQTEDEAIYFCALWYSNHWVFGGGTKLTVLGQPKAAPSVTLFPPSSEELQANKATLVCLISDFYPGAVTVAWKADSSPVKAGVETTTPSKQSNNKYAASSYLSLTPEQWKSHRSYSCQVTHEGSTVEKTVAPTECS
notes: DVD-Ig; N-term; AB014 (VEGF), C-term; AB073 (DLL4); HC linker short, LC linker short; also called DVD512H; DVD512L
Kd: 0.153 nM | koff: 0.000143 s⁻¹ | kon: 939000 M⁻¹ s⁻¹

B2: DVD524 (bispecific antibody, human IgG1, lambda)
heavy: not shown
light: DIQMTQSPSSLSASVGDRVTITCSASQDISNYLNWYQQKPGKAPKVLIYFTSSLHSGVPSRFSGSGSGTDFTLTISSLQPEDFATYYCQQYSTVPWTFGQGTKVEIKRTVAAPQAVVTQESALTTSPGETVTLTCRSSTGAVTTSNYANWVQEKPDHLFTGLIGGTNNRAPGVPARFSGSLIGDKAALTITGAQTEDEAIYFCALWYSNHWVFGGGTKLTVLGQPKAAPSVTLFPPSSEELQANKATLVCLISDFYPGAVTVAWKADSSPVKAGVETTTPSKQSNNKYAASSYLSLTPEQWKSHRSYSCQVTHEGSTVEKTVAPTECS
notes: DVD-Ig; N-term; AB014 (VEGF), C-term; AB073 (DLL4); HC linker long, LC linker short; also called DVD524H; DVD524L
Kd: 0.113 nM | koff: 0.000188 s⁻¹ | kon: 1.67e+06 M⁻¹ s⁻¹

B3: DVD442 (bispecific antibody, human IgG1, kappa)
heavy: not shown
light: DIQMTQSPSSLSASVGDRVTITCSASQDISNYLNWYQQKPGKAPKVLIYFTSSLHSGVPSRFSGSGSGTDFTLTISSLQPEDFATYYCQQYSTVPWTFGQGTKVEIKRTVAAPDIVMTQSPDSLAVSLGERATISCRASESVDNYGISFMKWFQQKPGQPPKLLIYAASNQGSGVPDRFSGSGSGTDFTLTISSLQAEDVAVYYCQQSKEVPWTFGGGTKVEIKRTVAAPSVFIFPPSDEQLKSGTASVVCLLNNFYPREAKVQWKVDNALQSGNSQESVTEQDSKDSTYSLSSTLTLSKADYEKHKVYACEVTHQGLSSPVTKSFNRGEC
notes: DVD-Ig; N-term; AB014 (VEGF), C-term; AB069 (DLL4); HC linker short, LC linker short; also called DVD442H; DVD442L
Kd: 0.088 nM | koff: 0.00017 s⁻¹ | kon: 1.93e+06 M⁻¹ s⁻¹

B4: DVD454 (bispecific antibody, human IgG1, kappa)
heavy: not shown
light: DIQMTQSPSSLSASVGDRVTITCSASQDISNYLNWYQQKPGKAPKVLIYFTSSLHSGVPSRFSGSGSGTDFTLTISSLQPEDFATYYCQQYSTVPWTFGQGTKVEIKRTVAAPDIVMTQSPDSLAVSLGERATISCRASESVDNYGISFMKWFQQKPGQPPKLLIYAASNQGSGVPDRFSGSGSGTDFTLTISSLQAEDVAVYYCQQSKEVPWTFGGGTKVEIKRTVAAPSVFIFPPSDEQLKSGTASVVCLLNNFYPREAKVQWKVDNALQSGNSQESVTEQDSKDSTYSLSSTLTLSKADYEKHKVYACEVTHQGLSSPVTKSFNRGEC
notes: DVD-Ig; N-term; AB014 (VEGF), C-term; AB069 (DLL4); HC linker long, LC linker short; also called DVD454H; DVD454L
Kd: 0.079 nM | koff: 0.000126 s⁻¹ | kon: 1.59e+06 M⁻¹ s⁻¹

B5: DVD518 (bispecific antibody, human IgG1, kappa, lambda)
heavy: not shown
light: DIQMTQSPSSLSASVGDRVTITCSASQDISNYLNWYQQKPGKAPKVLIYFTSSLHSGVPSRFSGSGSGTDFTLTISSLQPEDFATYYCQQYSTVPWTFGQGTKVEIKRTVAAPSVFIFPPQAVVTQESALTTSPGETVTLTCRSSTGAVTTSNYANWVQEKPDHLFTGLIGGTNNRAPGVPARFSGSLIGDKAALTITGAQTEDEAIYFCALWYSNHWVFGGGTKLTVLGQPKAAPSVTLFPPSSEELQANKATLVCLISDFYPGAVTVAWKADSSPVKAGVETTTPSKQSNNKYAASSYLSLTPEQWKSHRSYSCQVTHEGSTVEKTVAPTECS
notes: DVD-Ig; N-term; AB014 (VEGF), C-term; AB073 (DLL4); HC linker long, LC linker long; also called DVD518H; DVD518L
Kd: 0.434 nM | koff: 0.125 s⁻¹ | kon: 2.88e+08 M⁻¹ s⁻¹

B6: DVD530 (bispecific antibody, human IgG1, kappa, lambda, L234A L235A)
heavy: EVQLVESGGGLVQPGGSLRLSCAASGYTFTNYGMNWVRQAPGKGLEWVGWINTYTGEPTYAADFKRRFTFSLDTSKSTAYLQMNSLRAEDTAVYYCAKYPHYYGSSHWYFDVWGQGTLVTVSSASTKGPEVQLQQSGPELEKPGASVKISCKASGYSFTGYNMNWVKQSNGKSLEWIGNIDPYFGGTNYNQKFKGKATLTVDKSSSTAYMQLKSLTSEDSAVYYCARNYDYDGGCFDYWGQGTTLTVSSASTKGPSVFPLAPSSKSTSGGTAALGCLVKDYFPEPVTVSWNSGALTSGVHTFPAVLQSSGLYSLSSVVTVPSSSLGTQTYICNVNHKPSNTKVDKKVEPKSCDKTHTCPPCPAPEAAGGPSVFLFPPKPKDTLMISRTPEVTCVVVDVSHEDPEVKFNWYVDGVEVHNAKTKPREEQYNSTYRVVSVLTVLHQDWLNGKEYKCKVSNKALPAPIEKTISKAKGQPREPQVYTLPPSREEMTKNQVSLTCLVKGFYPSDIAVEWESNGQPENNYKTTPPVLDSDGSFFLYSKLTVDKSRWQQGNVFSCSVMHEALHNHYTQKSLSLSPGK
light: DIQMTQSPSSLSASVGDRVTITCSASQDISNYLNWYQQKPGKAPKVLIYFTSSLHSGVPSRFSGSGSGTDFTLTISSLQPEDFATYYCQQYSTVPWTFGQGTKVEIKRTVAAPSVFIFPPQAVVTQESALTTSPGETVTLTCRSSTGAVTTSNYANWVQEKPDHLFTGLIGGTNNRAPGVPARFSGSLIGDKAALTITGAQTEDEAIYFCALWYSNHWVFGGGTKLTVLGQPKAAPSVTLFPPSSEELQANKATLVCLISDFYPGAVTVAWKADSSPVKAGVETTTPSKQSNNKYAASSYLSLTPEQWKSHRSYSCQVTHEGSTVEKTVAPTECS
notes: DVD-Ig; N-term; AB014 (VEGF), C-term; AB073 (DLL4); HC linker short, LC linker long; also called DVD530H; DVD530L
Kd: 0.136 nM | koff: 0.000171 s⁻¹ | kon: 1.26e+06 M⁻¹ s⁻¹

B7: DVD470 (bispecific antibody, human IgG1, kappa)
heavy: not shown
light: DIQMTQSPSSLSASVGDRVTITCSASQDISNYLNWYQQKPGKAPKVLIYFTSSLHSGVPSRFSGSGSGTDFTLTISSLQPEDFATYYCQQYSTVPWTFGQGTKVEIKRTVAAPSVFIFPPDIQMTQSPSSLSASVGDRVTITCRASQDVSTAVAWYQQKPGKAPKLLIYSASFLYSGVPSRFSGSGSGTDFTLTISSLQPEDFATTYYCQQSYTGTVTFGQGTKVEIKRTVAAPSVFIFPPSDEQLKSGTASVVCLLNNFYPREAKVQWKVDNALQSGNSQESVTEQDSKDSTYSLSSTLTLSKADYEKHKVYACEVTHQGLSSPVTKSFNRGEC
notes: DVD-Ig; N-term; AB014 (VEGF), C-term; AB015 (DLL4); HC linker long, LC linker long; also called DVD470H; DVD470L
Kd: 0.201 nM | koff: 0.00024 s⁻¹ | kon: 1.2e+06 M⁻¹ s⁻¹

B8: DVD482 (bispecific antibody, human IgG1, kappa)
heavy: not shown
light: DIQMTQSPSSLSASVGDRVTITCSASQDISNYLNWYQQKPGKAPKVLIYFTSSLHSGVPSRFSGSGSGTDFTLTISSLQPEDFATYYCQQYSTVPWTFGQGTKVEIKRTVAAPSVFIFPPDIQMTQSPSSLSASVGDRVTITCRASQDVSTAVAWYQQKPGKAPKLLIYSASFLYSGVPSRFSGSGSGTDFTLTISSLQPEDFATTYYCQQSYTGTVTFGQGTKVEIKRTVAAPSVFIFPPSDEQLKSGTASVVCLLNNFYPREAKVQWKVDNALQSGNSQESVTEQDSKDSTYSLSSTLTLSKADYEKHKVYACEVTHQGLSSPVTKSFNRGEC
notes: DVD-Ig; N-term; AB014 (VEGF), C-term; AB015 (DLL4); HC linker short, LC linker long; also called DVD482H; DVD482L
Kd: 0.2 nM | koff: 0.000138 s⁻¹ | kon: 687000 M⁻¹ s⁻¹

— patent US20100260668A1 (published 2010)
